From patent US20240352084A1

How the values were obtained:
Conditions in all cases: ligand
[1] = biological target: human IL-2Rα ectodomain (residues 1-217) with C-terminal biotin acceptor peptide and histidine tag, biotinylated (human) (UniProt P01589); test: MST; pH 6
[2] = biological target: human IL-2Rα ectodomain (residues 1-217) with C-terminal biotin acceptor peptide and histidine tag, biotinylated (human) (UniProt P01589); test: MST; pH 7
[3] = biological target: human IL-2Rα ectodomain (residues 1-217) with C-terminal biotin acceptor peptide and histidine tag, biotinylated (human) (UniProt P01589); test: MST; pH 5

Chain of UniProt P01589 (P01589 other isoform, or with tags, fused parts or gaps): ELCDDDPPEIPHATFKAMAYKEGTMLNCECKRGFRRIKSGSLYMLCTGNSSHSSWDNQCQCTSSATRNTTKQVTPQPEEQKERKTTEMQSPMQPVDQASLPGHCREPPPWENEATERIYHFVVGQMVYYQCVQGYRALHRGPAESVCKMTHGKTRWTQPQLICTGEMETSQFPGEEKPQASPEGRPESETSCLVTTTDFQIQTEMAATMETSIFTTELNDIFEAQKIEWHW

Human IL-2 wild-type (WT; residues 1-133), recombinant, C-terminal histidine tag (from UniProt P60568 21-150)
Kd [1]: 90 nM | Kd [2]: 7 nM | Kd [3]: 184 nM
